Reference: patent US20200002415A1 (published 2020)
Substitutions are numbered along the chain they refer to.

Tests used:
[1] = target: T1, human FcγRIIA 131R on blood cells of 131R/R donors (human, UniProt P12318 34-317); assay: cell-based or functional assay
T1 chain: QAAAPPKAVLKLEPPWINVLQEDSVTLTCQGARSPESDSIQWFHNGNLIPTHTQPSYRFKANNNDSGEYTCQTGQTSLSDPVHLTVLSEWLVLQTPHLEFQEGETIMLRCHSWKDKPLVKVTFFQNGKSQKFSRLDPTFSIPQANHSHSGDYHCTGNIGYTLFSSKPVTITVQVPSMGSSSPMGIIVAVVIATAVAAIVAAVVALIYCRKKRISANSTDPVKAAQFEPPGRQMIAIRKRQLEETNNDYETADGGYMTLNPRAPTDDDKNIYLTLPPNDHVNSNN

[2] = target: T2, Recombinant FcγRIIA-131H/H allotype (generated at MedImmune) (human, UniProt P12318 34-217, limits assumed); assay: ELISA on coated recombinant FcγRIIA-131H/H
T2 construct: ELISA coating protein; also called human FcγRIIA; CD32A
T2 sequence: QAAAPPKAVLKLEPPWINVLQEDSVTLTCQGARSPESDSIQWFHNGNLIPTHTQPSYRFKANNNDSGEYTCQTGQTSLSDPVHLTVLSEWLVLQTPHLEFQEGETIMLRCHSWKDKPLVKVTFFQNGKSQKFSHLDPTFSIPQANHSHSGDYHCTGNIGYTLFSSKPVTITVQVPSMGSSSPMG
Procedure: Plates were washed five times with 200 μl of wash buffer (PBS containing 0.1% Tween 20), blocked with blocking buffer containing 5% milk in PBS for 1 hour at room temperature, and washed five additional times with wash buffer. Three-fold serial dilutions of the test antibody or control antibody (R347-Tm) were added to wells in duplicate. Plates were incubated for 2 hours at room temperature, and washed five times with wash buffer. Binding of the antibodies to the FcγRs was detected by adding 50 μl of goat anti-human Fc-HRP (Jackson ImmunoResearch Laboratories, PA) to the wells and incubating for 1 hour at room temperature, washing 10 times, and adding 50 μl TMB substrate (Pierce Biotechnology, MA). The color reaction was stopped with 50 μl 0.2M […] and the absorbance was measured using a spectrophotometer (Molecular Devices, CA) at […].

B1: chimeric IV.3 (human IgG1-TM) (antibody, V domains shown)
VH: QIQLVQSGPELKKPGETVKISCKASGYTFTNYGMNWVKQAPGKGLKWMGWLNTYTGESIYPDDFKGRFAFSSETSASTAYLQINNLKNEDMATYFCARGDYGYDDPLDYWGQGTSVTVSS
VL: DIVMTQAAPSVPVTPGESVSISCRSSKSLLHTNGNTYLHWFLQRPGQSPQLLIYRMSVLASGVPDRFSGSGSGTAFTLSISRVEAEDVGVFYCMQHLEYPLTFGAGTKLELK
EC50 of FcγRIIA internalization from the monocyte surface, whole blood FACS assay [1]: 0.2 nM

B2: 32LO0350 (antibody, human IgG1, V domains shown)
VH: QVQLVQSGAEVKKPGASVKVSCKASGYTFTNYGMNWVRQAPGQRLEWMGWLNTYTGESWYPDDFKGRVTITRDTSASTAYMELSSLRSEDTAVYYCARGDYGYDDPLDYWGQGTLVTVSS
VL: DIVMTQSPLSLPVTPGEPASISCRSSKSLLHTNRNTYLHWFLQKPGQSPQLLIYRMSVLASGVPDRFSGSGSGTDFTLKISRVEAEDVGVYYCMQHLEYPLTFGQGTKLEIK
notes: expressed as human IgG1-TM with human kappa light chain; also called optimized IV.3 clone 32LO0350
binding result [2]: binds

B3: 32LO0354 (antibody, human IgG1, V domains shown)
VH: B2 VH with W59Y
VL: B2 VL
notes: expressed as human IgG1-TM with human kappa light chain; also called optimized IV.3 clone 32LO0354
binding result [2]: binds

B4: 32LO0355 (antibody, human IgG1, V domains shown)
VH: B2 VH
VL: B2 VL with R34K
notes: expressed as human IgG1-TM with human kappa light chain; also called optimized IV.3 clone 32LO0355
binding result [2]: binds
